Data published in IntAct's records for PubMed 18366438.

B1: DNA primase (Geobacillus stearothermophilus), Q9X4D0 (parent)
chain: MGHRIPEETIEAIRRGVDIVDVIGEYVQLKRQGRNYFGLCPFHGEKTPSFSVSPEKQIFHCFGCGAGGNAFTFLMDIEGIPFVEAAKRLAAKAGVDLSVYELDVRGRDDGQTDEAKAMTEAHALLKRFYHHLLVHTKEGQAALDYLQARGWTKETIDRFEIGYAPDAPDAAAKLLESHSFSLPVMEKAGLLTKKEDGRYVGRFRNRIMFPIHDHRGETVGFSGRLLGEGHPKYVNSPETPVFRKGAILYHFHAARVPIRKRQEALLVEGFADVISAAQAGIDYAIATMGTSLTEEQARILRPCDTITICYDGDRAGIEAAWAAAEQLSALGCRVKVASLPNGLDPDEYIRVYGGERFAGEAGCRRPLVAFKMAYLRRGKNLQHEGERLRYIDEALREIGKLSSPVEQDYYLRQLAEEFSLSLSALHEQLSRSQRERTKPREAPDGETARPMLAKKLLPAFQNAERLLLAHMMRSRDVALVVQERIGGRFNIEEHRALAAYIYAFYEEGHEADPGALISRIPGELQPLASDVSLLLIADDVSEQELEDYIRHVLNRPKWLMLKVKEQEKTEAERRKDFLTAARIAKEMIEMKKMLSSS
partner: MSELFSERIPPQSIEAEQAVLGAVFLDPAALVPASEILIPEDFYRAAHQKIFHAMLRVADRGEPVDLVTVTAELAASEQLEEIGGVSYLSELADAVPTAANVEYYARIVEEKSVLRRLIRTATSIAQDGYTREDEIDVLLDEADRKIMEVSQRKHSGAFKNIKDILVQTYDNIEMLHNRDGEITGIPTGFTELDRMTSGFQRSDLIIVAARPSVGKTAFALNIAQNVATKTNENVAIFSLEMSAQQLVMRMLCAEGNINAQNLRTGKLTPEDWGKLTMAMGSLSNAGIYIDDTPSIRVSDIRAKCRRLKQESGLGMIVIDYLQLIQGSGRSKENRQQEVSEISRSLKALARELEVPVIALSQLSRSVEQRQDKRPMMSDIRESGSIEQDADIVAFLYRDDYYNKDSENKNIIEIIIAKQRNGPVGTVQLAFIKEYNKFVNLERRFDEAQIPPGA

Variants of: B1
Settings: with dnab_geose dnaB

| effect of a mutation on the interaction | Variant |
| --- | --- |
| decreasing interaction strength | MGHRIPEETIEAIRRGVDIVDVIGEYVQLKRQGRNYFGLCPFHGEKTPSFSVSPEKQIFHCFGCGAGGNAFTFLMDIEGIPFVEAAKRLAAKAGVDLSVYELDVRGRDDGQTDEAKAMTEAHALLKRFYHHLLVHTKEGQAALDYLQARGWTKETIDRFEIGYAPDAPDAAAKLLESHSFSLPVMEKAGLLTKKEDGRYVGRFRNRIMFPIHDHRGETVGFSGRLLGEGHPKYVNSPETPVFRKGAILYHFHAARVPIRKRQEALLVEGFADVISAAQAGIDYAIATMGTSLTEEQARILRPCDTITICYDGDRAGIEAAWAAAEQLSALGCRVKVASLPNGLDPDEYIRVYGGERFAGEAGCRRPLVAFKMAYLRRGKNLQHEGERLRYIDEALREIGKLSSPVEQDYYLRQLAEEFSLSLSALHEQLSRSQRERTKPREAPDGETARPMLAKKLLAAFQNAERLLLAHMMRSRDVALVVQERIGGRFNIEEHRALAAYIYAFYEEGHEADPGALISRIPGELQPLASDVSLLLIADDVSEQELEDYIRHVLNRPKWLMLKVKEQEKTEAERRKDFLTAARIAKEMIEMKKMLSSS [P458A] |

Variants of: B1
Settings: with dnab_geose dnaB
Remark: another data set of the same source

| effect of a mutation on the interaction | Variant |
| --- | --- |
| decreasing interaction strength | MGHRIPEETIEAIRRGVDIVDVIGEYVQLKRQGRNYFGLCPFHGEKTPSFSVSPEKQIFHCFGCGAGGNAFTFLMDIEGIPFVEAAKRLAAKAGVDLSVYELDVRGRDDGQTDEAKAMTEAHALLKRFYHHLLVHTKEGQAALDYLQARGWTKETIDRFEIGYAPDAPDAAAKLLESHSFSLPVMEKAGLLTKKEDGRYVGRFRNRIMFPIHDHRGETVGFSGRLLGEGHPKYVNSPETPVFRKGAILYHFHAARVPIRKRQEALLVEGFADVISAAQAGIDYAIATMGTSLTEEQARILRPCDTITICYDGDRAGIEAAWAAAEQLSALGCRVKVASLPNGLDPDEYIRVYGGERFAGEAGCRRPLVAFKMAYLRRGKNLQHEGERLRYIDEALREIGKLSSPVEQDYYLRQLAEEFSLSLSALHEQLSRSQRERTKPREAPDGETARPMLAKKLLPAFQNAERLLLAHMMRSRDVALVVQERIGGRFNIEEHRALAAYIYAFYEEGHEADPGALISRIPGELQPLASDVSLLLIADDVSEQELEDAIRHVLNRPKWLMLKVKEQEKTEAERRKDFLTAARIAKEMIEMKKMLSSS [Y548A] |
